Measured values as given in US20060233808A1 (published 2006).

Molecular target: T1, EGF receptor on human A431 cancer cells (human, UniProt P00533 25-1210)
T1 construct: whole, on cells; also called epidermal growth factor receptor; ErbB1
Test: competition assay on A431 cells, Mab425 fixed at 6.67 nM as competitor, Peptabody EGF 0.1 to 200 nM

binding result: binds
B1: Peptabody EGF (designed binder)
chain: MYSFEDLASHHHHHHGDLGPQMLRELQETNAALQDVRDYLRQLVREITFLKNTVMECDACGMQQTSPPTPPTPSPSTPPTPSPRSNSDSECPLSHDGYCLHDGVCMYIEALDKYACNCVVGYIGERCQYRDLKWWELR
notes: also called p-EGF; P-EGF
